Results from US6051698, “Vascular endothelial growth factor (VEGF) nucleic acid ligand complexes”.

B1: t22 (ssRNA)
RNA: GACGAUGCGGUAGGAAGAAUUGGAAGCGCT
modifications: 2'-F pyrimidines, 2'-OH purines, 3'-3' dT cap [30 (3'-3' dT cap); 2'-F pyrimidines 3,6,8,11,20,21,27,29]
B2: t44OMe (ssRNA)
RNA: CGGAAUCAGUGAAUGCUUAUACAUCCG
modifications: 2'-F pyrimidines, 2'-OMe purines except two 2'-OH purines
B3: t22OMe (OH-12,22) (ssRNA)
RNA: GACGAUGCGGUAGGAAGAAUUGGAAGCGC
modifications: 2'-F pyrimidines, 2'-OMe purines except 2'-OH at A12, G22
B4: t22e (ssRNA)
RNA: GGUAGGAAGAAUUGGAAGCGCT
modifications: 2'-F pyrimidines, 2'-OH purines, 3'-3' dT cap [22 (3'-3' dT cap); 2'-F pyrimidines 3,12,13,19,21]
B5: t2 (ssRNA)
RNA: GGCGAACCGAUGGAAUUUUUGGACGCUCGCCT
modifications: 2'-F pyrimidines, 2'-OH purines, 3'-3' dT cap [32 (3'-3' dT cap); 2'-F pyrimidines 3,7,8,11,16,17,18,19,20,24,26,27,28,30,31]

Columns and labels:
VEGF165 [1] = molecular target: T1, VEGF165 (Homo sapiens, UniProt P15692-4 P15692-4:27-191); assay: filter; 37 C; settings: tags: R&D Systems, expressed in Sf21 insect cells, carrier-free; chain copies: 2
Procedure: Nucleic Acid Ligands radiolabeled during transcription by incorporation of α-[^32P]-labeled NTPs, or after synthesis using γ-[^32P]-ATP and T4 polynucleotide kinase, were incubated in low concentration (between 20 and 70 pM) with varying concentrations of VEGF or other growth factors at 37° C. for 15 minutes. Incubations were in TBS, PBS, or HEPES-buffered saline (HBS), pH 7.4, with or without the addition of supplemental divalent cations. Samples were passed through prewashed 0.45μ Type HA filters (Millipore) followed by a 5–10 ml wash with binding buffer. Filters were immersed in scintillant and counted to quantitate the amount of protein-bound RNA retained by each filter. The equilibrium dissociation constant (K_D) of Nucleic Acid Ligand binding to a specific protein was calculated from thc data points as described in Green et al. (1996) Biochem. 35: 14413–14424.

VEGF165 [2] = molecular target: T1, VEGF165; assay: filter; EDTA, no divalents; Mg2+ does not rescue, Ca2+ fully restores; settings: tags: R&D Systems, expressed in Sf21 insect cells, carrier-free; chain copies: 2

T1 sequence (P15692 other isoform, or with tags, fused parts or gaps): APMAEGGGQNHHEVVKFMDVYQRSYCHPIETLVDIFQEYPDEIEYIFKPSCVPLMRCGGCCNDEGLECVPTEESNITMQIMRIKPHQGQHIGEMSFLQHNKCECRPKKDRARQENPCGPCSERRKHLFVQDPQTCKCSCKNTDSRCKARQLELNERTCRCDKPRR

Binder | Kd (VEGF165 [1]) [nM] | Kd (VEGF165 [2]) [nM]
B1 | 0.07 | 
B2 |  | > 100
B3 | 0.09 | 
B4 | 0.2 | 
B5 | 0.02 | 
